Test results as given in the supplement of paper PMC7125110.
± gives the standard error. Variants at the floor of the assay were thinned out.

B1: glmS ribozyme (parent)
chain: AUAAAAGCGCCAGAACUACAGAAAUGUAGUUGACGAGGAGGAGGUUUAUCGAAUUUUCGGCGGAUGCCUCCAAA

Legend:
Conditions in all cases: with glucosamine-6-phosphate
[1] = variants of: B1; experiment: self-cleavage kobs at 640 uM GlcN6P; higher = faster cleavage; RNA array
Procedure, shortened: (§1)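 Ribozyme variants carrying barcodes were transcribed in situ on sequenced MiSeq chips by E. coli RNA polymerase and tracked at 37 °C with a hybridised Cy3 probe. They were exposed to 40 μM to 10 mM glucosamine-6-phosphate in HEPES/KCl/Mg(OAc)2 buffer. kobs came from exponential decay fits of normalised per-tile medians, and kcat and KM from weighted Michaelis–Menten fits.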

[2] = variants of: B1; experiment: self-cleavage kobs at 10000 uM GlcN6P; higher = faster cleavage; RNA array
Procedure, shortened: as §1

[3] = variants of: B1; experiment: self-cleavage kobs at 2500 uM GlcN6P; higher = faster cleavage; RNA array
Procedure, shortened: as §1

| Variant | self-cleavage kobs at 640 uM GlcN6P [1] | self-cleavage kobs at 10000 uM GlcN6P [2] | self-cleavage kobs at 2500 uM GlcN6P [3] |
| --- | --- | --- | --- |
| G40U U46C A53U | 0.000351 ± 0.00012 s⁻¹ | 0.000745 ± 0.00019 s⁻¹ |  |
| A12C G38C U49C C50A | < 1e-05 s⁻¹ |  | < 1e-05 s⁻¹ |
| U47G G59A C67G | 0.000579 ± 0.00015 s⁻¹ |  |  |
| G13C A42U U57A G63C | < 1e-05 s⁻¹ |  | < 1e-05 s⁻¹ |
| C11A G44U A48G C61A | < 1e-05 s⁻¹ |  |  |
| C34G A42C A52U C58U U65G | < 1e-05 s⁻¹ |  | < 1e-05 s⁻¹ |
| G9U C16G G29U G40U G41A G66U | < 1e-05 s⁻¹ |  | < 1e-05 s⁻¹ |
| C10U G38U U69A | 8.22e-05 ± 2.4e-05 s⁻¹ |  |  |
| C8U A14C G32A | < 1e-05 s⁻¹ |  | < 1e-05 s⁻¹ |
| C11A G32A G66U | < 1e-05 s⁻¹ |  |  |
| A36C G37C U46A A48G C70G | < 1e-05 s⁻¹ |  |  |
| U56G U57G U65C | < 1e-05 s⁻¹ |  | < 1e-05 s⁻¹ |
| A36U A39G U45G C61U G62C | < 1e-05 s⁻¹ | < 1e-05 s⁻¹ | < 1e-05 s⁻¹ |
| C11U C16A U30A G32C U69G | 0.000926 ± 0.00019 s⁻¹ |  |  |
| A6U G37A U54A | < 1e-05 s⁻¹ |  |  |
| C11U A36C A39G C67G | < 1e-05 s⁻¹ |  | < 1e-05 s⁻¹ |
| C11A C16U U69G | 0.000429 ± 0.00014 s⁻¹ |  |  |
| G38A G44C C67U C71A | < 1e-05 s⁻¹ |  | < 1e-05 s⁻¹ |
| A12C G41A A48C | < 1e-05 s⁻¹ |  |  |
| G32A A53C C58U C71A | < 1e-05 s⁻¹ |  |  |
| C34A A39C G59C C61G | < 1e-05 s⁻¹ |  | < 1e-05 s⁻¹ |
| A15U G38U G40C A52U C58U C61G | < 1e-05 s⁻¹ |  |  |
| C11A A53C G66U | < 1e-05 s⁻¹ |  |  |
| C11U G29U A52C | < 1e-05 s⁻¹ |  |  |

| Variant | self-cleavage kobs at 640 uM GlcN6P [1] | self-cleavage kobs at 10000 uM GlcN6P [2] | self-cleavage kobs at 2500 uM GlcN6P [3] |
| --- | --- | --- | --- |
| G32A A33G C50A | < 1e-05 s⁻¹ | < 1e-05 s⁻¹ |  |
| C16G A36G G40A G63U | < 1e-05 s⁻¹ |  | < 1e-05 s⁻¹ |
| G41A G51U C68U C70G | < 1e-05 s⁻¹ |  | < 1e-05 s⁻¹ |
| C8A C16A G63U A64G U65C C71G | < 1e-05 s⁻¹ |  |  |
| G9A C11A A14G C34G G35U A36U A48U U55C C67G U69C | < 1e-05 s⁻¹ |  |  |
| C8G G32A U57G C67U | < 1e-05 s⁻¹ |  |  |
| U31G G37C U45G C70U | < 1e-05 s⁻¹ |  | < 1e-05 s⁻¹ |
| U31C C50G G59A C71G | 7.63e-05 ± 1.9e-05 s⁻¹ |  |  |
| A12G A39U A42C | 8.45e-05 ± 2.4e-05 s⁻¹ |  | 0.000119 ± 2.7e-05 s⁻¹ |
| U54G G66C | 0.000405 ± 6.3e-05 s⁻¹ | 0.00079 ± 0.00012 s⁻¹ |  |
| C8U G29A U31A G37U A52G C71G | 0.0078 ± 0.0033 s⁻¹ |  |  |
| G35A G40U C68U | < 1e-05 s⁻¹ |  |  |
| G13C A14G A42G | 0.000198 ± 6.9e-05 s⁻¹ |  | 0.000379 ± 9.2e-05 s⁻¹ |
| A33G A39G G41A | < 1e-05 s⁻¹ |  |  |
| C61G C68U U69A | < 1e-05 s⁻¹ |  |  |
| A6G A39U C70A | < 1e-05 s⁻¹ |  |  |
| U49C C58U G66A | < 1e-05 s⁻¹ |  |  |
| G13A A52C C58G U69G | 4.44e-05 ± 2e-05 s⁻¹ |  |  |
| G9C G41U G44C | < 1e-05 s⁻¹ |  |  |
| G40A A42G U46A | 0.000129 ± 4.5e-05 s⁻¹ | 0.00096 ± 0.00023 s⁻¹ | 0.000599 ± 0.0003 s⁻¹ |
| A15C G37C | < 1e-05 s⁻¹ |  |  |
| A15G C16A U30A A64G | 0.000408 ± 0.00011 s⁻¹ |  | 0.00162 ± 0.00041 s⁻¹ |
| C8A G13U C16A A33U U65G C71A | < 1e-05 s⁻¹ |  | < 1e-05 s⁻¹ |
| G32A U49C C50G | < 1e-05 s⁻¹ |  |  |

| Variant | self-cleavage kobs at 640 uM GlcN6P [1] | self-cleavage kobs at 10000 uM GlcN6P [2] | self-cleavage kobs at 2500 uM GlcN6P [3] |
| --- | --- | --- | --- |
| A36U G41U U55A | < 1e-05 s⁻¹ |  | < 1e-05 s⁻¹ |
| A39C U55G C67U | 7.28e-05 ± 1.4e-05 s⁻¹ |  |  |
| G7A C11U A52U C58A G62U | < 1e-05 s⁻¹ |  |  |
| G9U C61A C70G | 4.55e-05 ± 2.1e-05 s⁻¹ |  |  |
| C11U A15U G38A A53U | < 1e-05 s⁻¹ |  |  |
| A36G U47G | < 1e-05 s⁻¹ | < 1e-05 s⁻¹ |  |
| A14G A33G G41U A48C U69G | < 1e-05 s⁻¹ |  | < 1e-05 s⁻¹ |
| G62A G66C C67A | < 1e-05 s⁻¹ |  |  |
| G29A G40A A64G | 5.47e-05 ± 1.8e-05 s⁻¹ |  | 0.000112 ± 2.1e-05 s⁻¹ |
| G9U G44C C58A | < 1e-05 s⁻¹ |  |  |
| A12C C58U C70U | 6.75e-05 ± 2.5e-05 s⁻¹ |  | 7.09e-05 ± 3.2e-05 s⁻¹ |
| U46G A53G G66U | 7.95e-05 ± 2e-05 s⁻¹ |  | 0.000148 ± 5.2e-05 s⁻¹ |
| A6G U31G G37U | < 1e-05 s⁻¹ |  | < 1e-05 s⁻¹ |
| C16A U30G U45G G60A G66U | < 1e-05 s⁻¹ |  |  |
| G51C C67G C70U | < 1e-05 s⁻¹ |  | < 1e-05 s⁻¹ |
| U31G G32U A53U A64G | 0.000197 ± 6.1e-05 s⁻¹ |  |  |
| G13A G44C | < 1e-05 s⁻¹ |  |  |
| G40U U65G | 0.000417 ± 0.00014 s⁻¹ | 0.0019 ± 0.00044 s⁻¹ | 0.00108 ± 0.00028 s⁻¹ |
| U30A A42C C71U | < 1e-05 s⁻¹ |  |  |
| C8A G13U G43A G44U G63U | < 1e-05 s⁻¹ |  |  |
| A15U U45C G66U C67G | 7.69e-05 ± 2.9e-05 s⁻¹ |  | 0.000193 ± 5.8e-05 s⁻¹ |
| U31G G32U G40A A48C | < 1e-05 s⁻¹ |  | < 1e-05 s⁻¹ |
